Literature values in PMC6307816.

Biological target: EGFR (Homo sapiens) (UniProt P00533)

EGF (from UniProt P01133)
Kd: < 0.2 nM
